Results taken from the supplement of paper PMC9170038.

tested on: MS2 coat protein; experiment: apparent KD of MS2 coat protein, switch ON state; designed switch direction (-1 OFF switch, 1 ON switch): -1; higher = weaker reporter binding; details: FMN input: 0 or 200 uM; Eterna round: R93 (includes R88 designs)
In short: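 Illumina sequencing clusters were used for on-chip transcription of designed RNA switches. Titration with SNAP-549-labelled MS2 coat protein followed, in twofold steps from 0.7 or 1.5 nM to 3 µM in 100 mM Tris-HCl pH 7.5, 80 mM KCl, 4 mM MgCl2, without or with constant ligand. Apparent KD is each design's median of fits to normalised cluster binding curves.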

| Sequence | apparent KD of MS2 coat protein |
| --- | --- |
| AAGAAGUCAGGAUAUGCCAGAGAACAAGAAAGUGACGAAUAGCAGAAGGGACAUGAGGAUCACCCAUGUAAAGA [Opal 10] | 0.0337 µM |
| AAGAAGCAAGGAUAUACAUGAGGAUCACCCAUGUAAAAGAAAGAAGGGAAAGAGAAAAGUAGAAGGUGCAAGAA [Shepsesre Tefnakhte] | 0.0257 µM |
| AUAAACGGAGGAUAUACAUGAGGAUCACCCAUGUAAAAAAAAAAAAGUUCCUCAAAAAGUAGAAGGUCGAAUAA [JR_Exc003_Sub012] | 0.0155 µM |
| UAAAAGUGAGGAUAUUCGGAUAGGAAAACGAAAACCUAUCCGAAGAAGGCACAUGAGGAUCACCCAUGUGGAAU [Mat - Exaclusion 4 - Eli mod - D48] | 0.0313 µM |
| AACCAACAUGAGGAUCACCCAUGUCAGGAUAUGCGUACAACAUACAACAUACAUCAAAGCAGAAGGGACACAAA [Amethyst 84] | 0.0202 µM |
| GAAAAACAUGAGGAUCACCCAUGUAAGGAUAUGCUGAAAAAACACUGGAAACAGUGCAGCAGAAGGUACAAAAG [Mat - Exclusion 1 - Eli mod - D100] | 0.0203 µM |
| AAAAAAGCAGGAUAUACGAACAUGUCAAAAGACGUGAAGGGACAUGAGGAUCACCCAUGUAGAAGGGUUAAGAA [JL Stem Breaker 16] | 0.179 µM |
| AGCAAGUCAGGAUAUGCGAAGUCAGGACACACACUGACGAAGCAGAAGGGACAUGAGGAUCACCCAUGUAAGCA [JR_Exclusion4_Sub6] | 0.0425 µM |
| AACAGUACAGGAUAUACAUGAGGAUCACCCAUGUGAAAAUUAAGUGGAAAACCACAGUGUAGAAGGGUACUGGA [Mat - Exclusion 3 - Eli mod - D53] | 0.0475 µM |
| AAAUGUCUAGGAUAUACAUGAGGAUCACCCAUGUGUAAAAAUAAAUACACAAAAGAAAGUAGAAGGAGACAAAA [Ex 3 May 13] | 0.0224 µM |
| AAAGGACGAGGAUAUACAUGAGGAUCACCCAUGUAAAAAGCGUAGUAAAAGAACUUAUGUAGAAGGCGUCCAAA [Meechl Ex3 2 R2 v3] | 0.0594 µM |
| AACAGUACAGGAUAUACAUGAGGAUCACCCAUGUGAGAAUUAAGUGGCGUACCACAAAGUAGAAGGGUACUGAA [Mat - Exclusion 3 - JL mod - D6] | 0.0308 µM |
| AAAGGUUGAGGAUAUGCGUGGAAAAAGUGUAUUCAAAAAAAACAUGAGGAUCACCCAUGUAGAAGGCGACCAAA [MS2 Riboswitches On Chip Exclusion 2 wbt3] | 0.0619 µM |
| GAAGAACAUGAGGAUCACCCAUGUCAGGAUAUGCACUACGGAAUAAUAAGUAAUGGAAGUAGAAGGGACAAGAA [Ex 1 May 53] | 0.0262 µM |
| AAAAAACAUGAGGAUCACCCAUGUAAGGAUAUCGAAAAGAAAAGAAAAGAAAGAAGAACGAGAAGGUACAAGAA [Neferirkare Kakai] | 0.0166 µM |
| AUAAAGUGAGGAUAUACAUGAGGAUCACCCAUGUAAGAAAUAAAAUAAAUAAAGGGAAGUAGAAGGCACAAAUA [Denovo 1] | 0.0358 µM |
| ACCCUGCUAGGAUAUACAGCAGGGAUUCGAAAACCCACGAAACAUGAGGAUCACCCAUGUAGAAGGAGUAGGGA [Bimaat] | 0.0175 µM |
| AAGAAGAGAGGAUAUACAUGAGGAUCACCCAUGUAAAAGAAAGAGGGAAAAGAGAAAAGUAGAAGGCUCAAGAA [Arsinoe II] | 0.0239 µM |
| AAAAAACAUGAGGAUCACCCAUGUGAGGAUAUGCAUAAAAAAAAAAAAAAAAAAAAAUGCAGAAGGCACAUAAA [jn_bayonne] | 0.0401 µM |
| AAGGUACGAGGAUAUACAUAGAUACAGAUACAUGUAGACGUACAUGAGGAUCACCCAUGUAGAAGGCGUAUAUA [AJ 24] | 0.0468 µM |
| AAAAAGGGAGGAUAUACAUGAGGAUCACCCAUGUAAAACGCGCCAACAAAGAAACAAAGUAGAAGGCCCAAAAA [Default title] | 0.0173 µM |
| ACCAGACAUGAGGAUCACCCAUGUCAGGAUAUCUAGAAAACCUCAUGUAAAAAAAUCUAGAGAAGGGAUAUGGA [Design 94: Pseudoknot D] | 0.0406 µM |
| AAAAAGCGAGGAUAUACGAGUCAAAGAAAAGACAAAGGGAAACAUGAGGAUCACCCAUGUAGAAGGCGCAAAAA [Fiskers exclusion D2 62% 1] | 0.0237 µM |

| Sequence | apparent KD of MS2 coat protein |
| --- | --- |
| AAGAAGUGAGGAUAUCGAAGACAGACGAAAAGUCUGUCAAACGAGAAGGCACAUGAGGAUCACCCAUGUGAGAA [What have we learned so far? 64% 2] | 0.0226 µM |
| AGCAAACAUGAGGAUCACCCAUGUCAGGAUAUGAACGAAAUAAAAUAAAAAUAAAAGUUCAGAAGGGACGAGCA [Mat - Exclusion 1 - Eli mod - D24] | 0.0323 µM |
| AAAGGGUCAGGAUAUGUACGAACAACAAAACAAAUAACGAUACAGAAGGGACAUGAGGAUCACCCAUGUAUAAA [May 74] | 0.0558 µM |
| GGUUGGCGAGGAUAUACAUGAGGAUCACCCAUGUGAGAGAAAAAAGUGAGGAGGGAAAGUAGAAGGCGCUGACG [salish99-ex3-16] | 0.0273 µM |
| AAUAAGUGAGGAUAUGCAAAUAAUAAAUAAAAUAAAAUAAAGCAGAAGGCACAUGAGGAUCACCCAUGUAAAUA [JR_Exc004_Sub001] | 0.034 µM |
| AAUGCGGCAGGAUAUACAUGAGGAUCACCCAUGUAGAUCAGAUAUAUGGGAAAGCCAUGUAGAAGGGCCGCAAA [Ex 3May 61] | 0.0946 µM |
| CCAAACGGAGGAUAUACAAAUUAAGGAAAAAAACGCGAAAAACAUGAGGAUCACCCAUGUAGAAGGCCGAAAAA [Ex 2 #2] | 0.0203 µM |
| CCAAAGUGAGGAUAUACGCGAACAAAAAAAAAAAAGAAAGCGUAGAAGGCACAUGAGGAUCACCCAUGUCCAGG [Alfred 64% 1] | 0.041 µM |
| AGCAGGUGAGGAUAUCGAUUAAGAUUAACAUUAUUAUUAAACGAGAAGGCACAUGAGGAUCACCCAUGUAAGGA [Exclusion 4Col] | 0.0434 µM |
| AAAUGCUGAGGAUAUACAUGAGGAUCACCCAUGUGAAAUAAAAAAUGUGUGUAAGCGUGUAGAAGGCAGCAUAA [Exclusion 3.12 (FMN+ favored)] | 0.0571 µM |
| GCUUGGGAAGGAUAUACAUGAGGAUCACCCAUGUGAGAGAAAAAAGUGAGAAAGAAAAGUAGAAGGUCCUGAGG [salish99-ex3-108] | 0.0712 µM |
| GUGUACAGAGGAUAUACAUGAGCAUGGAAACAUGCAGGAUCACAUGAGGAUCACCCAUGUAGAAGGCUGUACAC [Ex2: 732] | 0.0351 µM |
| AAAAGCACAGGAUAUACAAAAAAAUGACGAAAGUCAUAGGGACAUGAGGAUCACCCAUGUAGAAGGGUGCAAAA [Mod of Meechl's... 64% 4] | 0.197 µM |
| AAGAAGCUAGGAUAUACAUGAGGAUCACCCAUGUAAAAGAAAGAAAAGGGAAAGAAAAGUAGAAGGAGCAAGAA [Menpehtire Ramesses I] | 0.0287 µM |
| AAGAACGCAGGAUAUACUAAAGAAAUGAAAAGAAAUAAAGAACAUGAGGAUCACCCAUGUAGAAGGGCGAAGAA [Merdjefare] | 0.0394 µM |
| AAAAAACAUGAGGAUCACCCAUGUAAGGAUAUCGGAAAAGGAAAAAAAAAAAAUAAGACGAGAAGGUACACCAA [Mat - Exclusion 1 - Eli mod - D79] | 0.0233 µM |
| AACAGUACAGGAUAUACAUGAGGAUCACCCAUGUGAAAAUUAAGUGGGAGACCACAAGGUAGAAGGGUACUGGA [Mat - Exclusion 3 - Eli mod - D65] | 0.176 µM |
| AGCUAGUCAGGAUAUACGAACAUGUCGGUGGACGUGAAGGGACAUGAGGAUCACCCAUGUAGAAGGGACUAGCA [salish99-Ex2-21] | 0.0413 µM |
| AAGAAACAUGAGGAUCACCCAUGUGAGGAUAUCGAAGAAAGAAAGAAAGAAAGAAGAACGAGAAGGCACAAAGG [Publius Octavius] | 0.0427 µM |
| AAAAAGGUAGGAUAUACAUGAGGAUCACCCAUGUACAUAAAUGGAGAAAAAAACAGUAGUAGAAGGGCCAAAAA [Ex3 Malc#10] | 0.0295 µM |
| AACAAGACAGGAUAUACAUGAGGAUCACCCAUGUCACAAUAAAGUAGCGUAACACAAAGUAGAAGGGUCAUGGA [Ruby 8] | 0.0415 µM |
| AAGAAGGGAGGAUAUACUAAAGAAAUGAAAAGAAAUAAAGAACAUGAGGAUCACCCAUGUAGAAGGCCCAAGAA [Nehesy] | 0.0297 µM |
